The data set concerns the molecule itself. The data set can be described thus: AUC.

B1: Aureochrome1 LOV domain (AuLOV), residues 176-337 of V. frigida Aureochrome1 (domain or fragment, UniProt A8QW55 176-337, looked up)
chain: DSLIAQCSPEADTLLTDNPSKANRILEDPDYSLVKALQMAQQNFVITDASLPDNPIVYASRGFLTLTGYSLDQILGRNCRFLQGPETDPRAVDKIRNAITKGVDTSVCLLNYRQDGTTFWNLFFVAGLRDSKGNIVNYVGVQSKVSEDYAKLLVNEQNIEYK
With B1, the “stoichiometry N” value amounted to 2.

As a reminder, the stoichiometry N is the number of molecules, sites or subunits per partner or assembly.

Values taken from article PMC3322389 (Structure(London, England:1993), 2012).
